The values that follow come from patent US20060263849A1, “Glucagon-like peptide-1 analogs” (priority 2000, published 2006).

Data set [1] deals with GLP-1 receptor. Kind of data set: GLP-1 receptor activation, in vitro assays. Format: cell-based. The note with it: for GLP-1 Receptor Activation: activity relative to the activity of GLP-1(7-37)OH. An excerpt:
“Insulinotropic activity” refers to stimulating insulin secretion in response to elevated glucose levels, thereby causing glucose uptake by cells and decreased serum glucose levels. Insulinotropic activity can be assessed by methods known in the art, including using in vivo experiments and in vitro assays that measure GLP-1 receptor binding activity or receptor activation, e.g., assays employing pancreatic islet cells or insulinoma cells, as described in EP 619,322 to Gelfand, et al., and U.S. Pat. No. 5,120,712, respectively. The entire teachings of these references are incorporated herein by reference.
The ability of the GLP-1 compounds of the present invention to activate the GLP-1 receptor was assessed using in vitro assays such as those described in EP 619,322 to Gelfand, et al., and U.S. Pat. No. 5,120,712, respectively. The entire teachings of these references are incorporated herein by reference.

Data set [2] in a line: GLP Aggregation Assay (time to onset of aggregation, turbidity at 350 nm). Format: physicochemical. The conditions noted are these: for Aggregation Time: 0.3 mg/mL in 10 mM citrate, 10 mM phosphate, 150 mM NaCl, pH 7.4 to 7.5, 37° C., stirred, turbidity at 350 nm. As for the experimental part:
GLP peptides of this invention were analyzed with respect to their potential to aggregate in solution. In general, peptides in solution were stirred at elevated temperature in a suitable buffer while recording turbidity at 350 nm as a function of time. Time to the onset of aggregation was measured to quantify the potential of a given GLP molecule to aggregate under these stressed conditions.
A GLP-1 compound was first dissolved under alkaline conditions (pH 10.5) for 30 minutes to dissolve any pre-aggregated material. The solution was then adjusted to pH 7.4 and filtered. Specifically, 4 mg of a lyophilized GLP-1 compound was dissolved in 3 ml of 10 mM phosphate/10 mM citrate. The pH was adjusted to 10.0-10.5 and held for 30 minutes. The solution was adjusted with HCl to pH 7.4 and filtered through a suitable filter, for example a Millex GV syringe filter (Millipore Corporation, Bedford, Mass.). This solution was then diluted to a final sample containing 0.3 mg/mL protein in 10 mM citrate, 10 mM phosphate, 150 mM NaCl, and adjusted to pH 7.4 to 7.5. […] Every five minutes the turbidity of the solution was measured at 350 nm on an AVIV Model 14DS UV-VIS spectrophotometer (Lakewood, N.J.). For 30 seconds prior to and during the measurement the solution was stirred using a magnetic stir bar from Starna Cells, Inc. (Atascadero, Calif.). An increase in OD at 350 nm indicates aggregation of the GLP-peptide. The time to aggregation was approximated by the intersection of linear fits to the pre-growth and growth phase according to method of Drake (Arvinte T, Cudd A, and Drake A F. (1993) J. Bio. Chem. 268, 6415-6422).
The cuvette was cleaned between experiments with a caustic soap solution (e.g., Contrad-70).
The results for a number of GLP-1 compounds of the present invention are reported in Table 1 as the time in hours required for the compound to aggregate.

A short description of data set [3]: Zinc precipitation of GLP-1 compounds (A280 of supernatant). The note with it: HEPES pH 7.4, 22° C., 18 hours. Format: physicochemical. As for the experimental part:
Individual GLP-1 compounds were prepared as described in Examples 1 or 2. 3 mg of an individual lyophilized GLP molecule was dissolved in 3 ml 0.1 M HEPES buffer pH 10.5. The pH of the resulting solution was then adjusted to between 10.0 and 10.5 with 0.2 N NaOH. The solution was stirred at ambient temperature for 30 minutes and the solution was then adjusted to a pH of 7.4 with 0.2 N HCl. The solution was filtered through an appropriate syringe filter, for example a Millex GV syringe filter (Millipore Corporation, Bedford, Mass.), and the concentration of the GLP-1 compound was estimated by measuring the absorption at 280 nm in a spectrophotometer, for example a Beckman DU640. The protein concentration was then adjusted to 200 μM in HEPES pH 7.4.
The filtered GLP-1 solutions (100 μl) were diluted with 100 μl of 0.1 M HEPES pH 7.4 containing various levels of zinc chloride in an ELISA plate, (e.g. Falcon Microtest™ 96) resulting in 200 μl of solution containing various levels of zinc chloride and 100 μM GLP-1 compounds. These solutions were incubated at ambient temperature (22° C.) for 18 hours and then centrifuged, for example, in a Jouan CR412 centrifuge with microplate adapters. 150 μl of the supernatants after centrifugation were then transferred to a UV-readable ELISA microtiter plate (e.g. Costar UV plate) and the OD at 280 was determined in a microplate reader (e.g. Molecular Devices SPECTRAmax PLUS, SOFTmax PRO). A280 values are the result of two independent determinations.

Where [4] appears, read: Zn/GLP-1 molar ratio 0, 100 μM GLP-1 compound.
[5] abbreviates: Zn/GLP-1 molar ratio 0.3, 100 μM GLP-1 compound.
The mark [6] stands for this setting: Zn/GLP-1 molar ratio 0.5, 100 μM GLP-1 compound.
Setting [7] is: Zn/GLP-1 molar ratio 0.7, 100 μM GLP-1 compound.
[8] abbreviates: Zn/GLP-1 molar ratio 1, 100 μM GLP-1 compound.
The mark [9] stands for this setting: Zn/GLP-1 molar ratio 2, 100 μM GLP-1 compound.
The mark [10] stands for this setting: Zn/GLP-1 molar ratio 3, 100 μM GLP-1 compound.
The mark [11] stands for this setting: Zn/GLP-1 molar ratio 5, 100 μM GLP-1 compound.

As for “Val^8-Ser^22-GLP-1(7-37)OH (HVEGTFTSDVSSYLESQAAKEFIAWLVKGRG)”, the “GLP-1 Receptor Activation” value in data set [1] worked out at 0.50. For the same substance, in data set [2], the “Aggregation Time” value is 22 h. The A280 in data set [3] (setting [4]) is 0.2855; in data set [3] (setting [5]) it was 0.2805; in data set [3] (setting [6]), 0.2665; in data set [3] (setting [7]), 0.1825; in data set [3] (setting [8]), 0.149; in data set [3] (setting [9]) it was 0.0935. The values for the A280 in data set [3] (setting [10]) and in data set [3] (setting [11]) were 0.101 and 0.0615, respectively.
For “Val^8-Ala^22-GLP-1(7-37)OH (HVEGTFTSDVSSYLEAQAAKEFIAWLVKGRG)”, the “GLP-1 Receptor Activation” value in data set [1] was determined as 0.56. Moreover, the “Aggregation Time” value in data set [2] was found to be 19 h. Also, the A280 in data set [3] (setting [4]) is 0.289; in data set [3] (setting [5]), 0.202; in data set [3] (setting [6]), 0.107; in data set [3] (setting [7]), 0.104; in data set [3] (setting [8]), 0.110; in data set [3] (setting [9]), 0.110. In addition, the A280 in data set [3] (setting [10]) worked out at 0.104; in data set [3] (setting [11]), 0.119.
As to “Val^8-Glu^22-GLP-1(7-37)OH (HVEGTFTSDVSSYLEEQAAKEFIAWLVKGRG)”, in data set [1], the “GLP-1 Receptor Activation” value stood at 1.29. Further, the “GLP-1 receptor activation greater than GLP-1(7-37)OH” value in data set [1] (relative to GLP-1(7-37)OH) was “about 25%”. In data set [2], the “Aggregation Time” value was determined as 72 h. Also, the “aggregation time compared with GLP-1(7-37)OH” value in data set [2] (relative to GLP-1(7-37)OH) is recorded as “over twenty fold greater”. Moreover, the A280 amounted to 0.295 in data set [3] (setting [4]); 0.291 in data set [3] (setting [5]); 0.292 in data set [3] (setting [6]); 0.293 in data set [3] (setting [7]); 0.26 in data set [3] (setting [8]); 0.078 in data set [3] (setting [9]). Moreover, the A280 in data set [3] (setting [10]) turned out to be 0.052; in data set [3] (setting [11]), 0.035.
